Data on one substance can be found in patent US20110217401.

In the series the target is human apolipoprotein B (apoB) of serum low density lipoprotein particles (UniProt P04114).
human apolipoprotein B (apoB) of serum low density lipoprotein particles, sequence (P04114 28-4563): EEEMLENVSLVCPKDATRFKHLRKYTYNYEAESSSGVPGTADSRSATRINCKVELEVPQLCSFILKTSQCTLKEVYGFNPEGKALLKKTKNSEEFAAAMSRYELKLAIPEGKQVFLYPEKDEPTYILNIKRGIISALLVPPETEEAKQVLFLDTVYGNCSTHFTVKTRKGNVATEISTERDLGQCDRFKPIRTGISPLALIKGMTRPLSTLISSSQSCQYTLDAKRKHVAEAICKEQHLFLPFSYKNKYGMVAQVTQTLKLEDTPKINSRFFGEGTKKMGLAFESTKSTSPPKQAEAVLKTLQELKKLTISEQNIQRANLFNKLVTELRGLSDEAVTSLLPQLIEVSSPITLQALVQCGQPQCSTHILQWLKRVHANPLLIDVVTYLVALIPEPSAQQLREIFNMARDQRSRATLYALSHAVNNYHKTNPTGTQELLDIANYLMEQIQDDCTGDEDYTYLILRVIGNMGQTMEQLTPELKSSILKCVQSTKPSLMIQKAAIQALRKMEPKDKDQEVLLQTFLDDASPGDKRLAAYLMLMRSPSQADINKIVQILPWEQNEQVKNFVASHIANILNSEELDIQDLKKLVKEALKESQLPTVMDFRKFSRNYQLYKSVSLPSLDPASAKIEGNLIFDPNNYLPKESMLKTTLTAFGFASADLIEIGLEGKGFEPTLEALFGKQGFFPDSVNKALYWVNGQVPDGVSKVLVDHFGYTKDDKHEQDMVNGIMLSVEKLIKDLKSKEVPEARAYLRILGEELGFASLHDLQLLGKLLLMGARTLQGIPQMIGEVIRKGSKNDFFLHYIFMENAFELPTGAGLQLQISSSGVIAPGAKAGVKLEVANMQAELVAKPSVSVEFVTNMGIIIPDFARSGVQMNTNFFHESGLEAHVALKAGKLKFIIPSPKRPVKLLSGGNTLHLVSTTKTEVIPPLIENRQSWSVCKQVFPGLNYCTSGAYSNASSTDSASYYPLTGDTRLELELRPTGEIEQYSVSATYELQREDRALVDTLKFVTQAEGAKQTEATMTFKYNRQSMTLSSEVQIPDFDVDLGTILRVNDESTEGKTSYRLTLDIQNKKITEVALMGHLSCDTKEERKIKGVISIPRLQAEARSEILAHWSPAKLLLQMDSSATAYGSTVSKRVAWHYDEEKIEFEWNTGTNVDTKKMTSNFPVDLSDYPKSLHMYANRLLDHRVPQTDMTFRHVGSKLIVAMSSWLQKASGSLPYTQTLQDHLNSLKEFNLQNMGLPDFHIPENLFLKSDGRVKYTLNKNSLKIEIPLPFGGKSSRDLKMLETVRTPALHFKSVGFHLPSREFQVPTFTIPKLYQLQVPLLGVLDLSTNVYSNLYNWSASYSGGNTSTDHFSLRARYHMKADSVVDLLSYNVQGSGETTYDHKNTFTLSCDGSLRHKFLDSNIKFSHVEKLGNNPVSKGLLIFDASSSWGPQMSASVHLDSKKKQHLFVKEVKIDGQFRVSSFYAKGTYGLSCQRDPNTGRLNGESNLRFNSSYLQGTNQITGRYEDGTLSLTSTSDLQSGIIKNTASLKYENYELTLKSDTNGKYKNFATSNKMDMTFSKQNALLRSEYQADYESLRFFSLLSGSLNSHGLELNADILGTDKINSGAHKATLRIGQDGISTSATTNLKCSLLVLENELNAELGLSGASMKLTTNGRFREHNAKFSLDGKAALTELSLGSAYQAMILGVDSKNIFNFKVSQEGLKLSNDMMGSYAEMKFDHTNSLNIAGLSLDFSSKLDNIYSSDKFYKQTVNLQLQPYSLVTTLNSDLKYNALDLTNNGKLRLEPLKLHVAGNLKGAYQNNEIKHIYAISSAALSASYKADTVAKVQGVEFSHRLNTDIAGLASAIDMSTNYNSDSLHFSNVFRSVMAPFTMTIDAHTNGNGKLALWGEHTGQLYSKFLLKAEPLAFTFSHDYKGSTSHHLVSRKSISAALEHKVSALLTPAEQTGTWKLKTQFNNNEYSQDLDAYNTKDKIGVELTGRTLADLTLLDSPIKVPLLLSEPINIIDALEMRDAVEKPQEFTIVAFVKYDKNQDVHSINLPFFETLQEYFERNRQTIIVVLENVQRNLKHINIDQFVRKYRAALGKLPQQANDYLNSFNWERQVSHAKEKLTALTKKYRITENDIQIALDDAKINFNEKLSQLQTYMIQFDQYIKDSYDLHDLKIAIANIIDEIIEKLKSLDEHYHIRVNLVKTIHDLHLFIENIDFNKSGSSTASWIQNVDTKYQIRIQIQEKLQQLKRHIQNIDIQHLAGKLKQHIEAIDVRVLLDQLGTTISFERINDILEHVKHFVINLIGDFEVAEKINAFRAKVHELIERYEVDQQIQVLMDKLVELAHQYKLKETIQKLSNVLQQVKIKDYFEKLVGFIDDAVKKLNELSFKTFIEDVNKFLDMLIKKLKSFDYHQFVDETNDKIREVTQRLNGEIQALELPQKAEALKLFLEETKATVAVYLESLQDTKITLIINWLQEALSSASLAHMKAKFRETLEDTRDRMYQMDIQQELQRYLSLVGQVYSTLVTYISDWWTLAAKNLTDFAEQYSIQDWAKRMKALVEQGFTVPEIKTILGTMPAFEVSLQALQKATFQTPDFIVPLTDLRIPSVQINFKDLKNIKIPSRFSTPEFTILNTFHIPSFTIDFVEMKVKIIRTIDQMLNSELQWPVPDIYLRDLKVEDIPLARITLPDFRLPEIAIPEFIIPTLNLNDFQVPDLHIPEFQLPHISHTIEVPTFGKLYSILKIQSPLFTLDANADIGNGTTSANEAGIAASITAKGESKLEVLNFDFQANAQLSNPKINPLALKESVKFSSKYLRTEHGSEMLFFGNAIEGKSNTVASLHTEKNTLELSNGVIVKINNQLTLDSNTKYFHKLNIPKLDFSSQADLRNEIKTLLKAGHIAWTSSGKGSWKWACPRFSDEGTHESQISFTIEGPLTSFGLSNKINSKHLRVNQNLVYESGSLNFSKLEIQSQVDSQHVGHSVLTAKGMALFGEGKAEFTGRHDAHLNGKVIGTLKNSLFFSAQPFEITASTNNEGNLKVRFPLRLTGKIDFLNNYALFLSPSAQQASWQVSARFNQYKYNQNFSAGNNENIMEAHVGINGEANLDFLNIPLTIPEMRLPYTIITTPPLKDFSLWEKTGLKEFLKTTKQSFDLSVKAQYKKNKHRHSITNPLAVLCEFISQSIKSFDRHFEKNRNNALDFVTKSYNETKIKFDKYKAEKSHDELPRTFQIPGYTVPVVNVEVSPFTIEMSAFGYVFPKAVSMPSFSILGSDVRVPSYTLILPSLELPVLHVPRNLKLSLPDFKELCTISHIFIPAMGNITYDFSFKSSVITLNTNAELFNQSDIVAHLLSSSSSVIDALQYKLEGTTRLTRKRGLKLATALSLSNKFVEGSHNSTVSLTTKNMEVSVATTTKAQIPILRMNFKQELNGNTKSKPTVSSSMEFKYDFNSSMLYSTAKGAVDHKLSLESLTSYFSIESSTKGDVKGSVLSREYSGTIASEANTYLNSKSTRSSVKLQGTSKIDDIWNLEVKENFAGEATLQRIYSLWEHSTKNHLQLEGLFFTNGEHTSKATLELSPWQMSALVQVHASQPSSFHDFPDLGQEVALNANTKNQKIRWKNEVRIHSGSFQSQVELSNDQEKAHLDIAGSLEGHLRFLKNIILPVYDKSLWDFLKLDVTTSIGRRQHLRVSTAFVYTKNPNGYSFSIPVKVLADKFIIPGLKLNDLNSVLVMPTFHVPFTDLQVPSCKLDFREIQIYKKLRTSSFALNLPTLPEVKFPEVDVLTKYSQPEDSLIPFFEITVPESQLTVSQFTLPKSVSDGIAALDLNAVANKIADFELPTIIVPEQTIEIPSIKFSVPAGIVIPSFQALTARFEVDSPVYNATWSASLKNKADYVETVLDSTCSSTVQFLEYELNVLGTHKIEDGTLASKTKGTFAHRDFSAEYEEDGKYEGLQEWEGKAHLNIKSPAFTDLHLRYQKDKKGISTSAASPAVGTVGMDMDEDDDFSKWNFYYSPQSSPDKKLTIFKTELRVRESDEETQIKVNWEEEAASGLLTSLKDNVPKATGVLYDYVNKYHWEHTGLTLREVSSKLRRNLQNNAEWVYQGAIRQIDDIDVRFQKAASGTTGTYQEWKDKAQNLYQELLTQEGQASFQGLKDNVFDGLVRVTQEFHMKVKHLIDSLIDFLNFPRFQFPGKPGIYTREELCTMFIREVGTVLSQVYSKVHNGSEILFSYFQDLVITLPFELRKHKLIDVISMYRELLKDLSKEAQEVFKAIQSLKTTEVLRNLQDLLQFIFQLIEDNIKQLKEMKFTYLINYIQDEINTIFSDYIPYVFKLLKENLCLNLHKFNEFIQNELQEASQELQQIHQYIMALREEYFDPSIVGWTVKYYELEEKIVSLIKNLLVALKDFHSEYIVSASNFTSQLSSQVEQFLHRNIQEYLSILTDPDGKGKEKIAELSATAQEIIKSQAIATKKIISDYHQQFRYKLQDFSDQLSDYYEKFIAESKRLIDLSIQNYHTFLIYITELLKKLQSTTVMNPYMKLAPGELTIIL

With “recombinant arNOX SF2 (recombinant apoBNOX, TM9SF2 expressed in E. coli from pET11a-TM9SF2)”, the Oxidation of protein thiols of human apoB (DTNB reactivity), nmoles SH oxidized, complete mixture, 2 h (nmoles SH oxidized) was 500 and the Oxidation of protein thiols of human apoB (DTNB reactivity), relative units, complete mixture, 2 h (relative units) stood at 25.
